Values of other authors, collected in patent US6887705B1, “Tyrosine phosphorylated cleavage furrow-associated proteins (PSTPIPs)” (Genentech, Inc., priority 1997, dated 2005).

Target: T1, interaction between PTP HSCF and PSTPIP (Mus musculus, UniProt P97814)
T1 construct: made in house; host or cells: GST fusion: E. coli DH5-alpha; PSTPIP: in vitro transcription/translation in rabbit reticulocyte lysate (Promega TnT)
T1 sequence (P97814 1-415): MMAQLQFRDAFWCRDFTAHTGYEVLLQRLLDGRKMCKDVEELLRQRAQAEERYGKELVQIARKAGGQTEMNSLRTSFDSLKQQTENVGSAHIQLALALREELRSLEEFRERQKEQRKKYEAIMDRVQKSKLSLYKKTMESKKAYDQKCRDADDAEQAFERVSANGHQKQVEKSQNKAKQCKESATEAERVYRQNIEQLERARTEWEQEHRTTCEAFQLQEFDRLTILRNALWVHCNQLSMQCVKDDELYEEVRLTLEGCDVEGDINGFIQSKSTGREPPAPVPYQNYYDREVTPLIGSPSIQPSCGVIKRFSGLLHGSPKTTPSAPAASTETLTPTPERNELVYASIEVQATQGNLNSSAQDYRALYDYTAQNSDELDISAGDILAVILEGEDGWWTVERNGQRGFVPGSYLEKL
Settings: previous studies (Spencer et al. 1997); cited from earlier work

Sequence	blocking of the PTP HSCF-PST PIP interaction by C-terminal peptides of related PTPs
GFGNRCGKPKGPRDPPSEWT [PXXP-PEST]	effectively block the interaction
GFGNRFSKPKGPRNPPSAW [PXXP-PEP]	effectively block the interaction
